The text below walks through data of the RNAGym collection of RNA variant scans (doi:10.7554/elife.90254).

B1: LINE1-full (parent)
chain: UACGUAGGUGGUUUUCCCCUGAUAGUGCUAAGGGGGCCUGGAAGUUUGGACUGGGCAGAGCUCAACACAGCGUGGCAAAGUGGCUGUGGCUAGACUGCCUCUCUGGAUUCCUCGUCACUCAGCAGGGCAUCUCUGAGAGAAAUGCC

The variants in the series derive from B1. Nature of the series: self-cleavage, relative activity (ratio to wild type); higher = more cleavage; in vitro, sequencing; the parent is a self-cleaving ribozyme.
For the variant A64G G80A, the self-cleavage was determined as 0.39.
With A64U U96A, the self-cleavage was 0.06.
For A65U U108C, the self-cleavage was found to be 0.4.
The figure for C66U A69G is 0.06; for A67G A124U it is 0.49; for A65G U134A it is 0.04.
Next, A67G C113U: 0.44.
In the case of A67G C113A, the self-cleavage was determined as 0.45.
With A65G C131G, the self-cleavage came to 0.06.
Regarding A65U A129U, the self-cleavage is 0.18.
For A65U A129G, the self-cleavage is 0.38.
For A64G U73G, the self-cleavage was 0.15.
On to A67G A107G, for which the self-cleavage is 0.25.
With A67G A107U, the self-cleavage was 0.92.
The figure for A65G U119G is 0; for A65G U119C it is 0.04.
As to A67G G74A, the self-cleavage came out at 0.45.
For the variant A65G U104A, the self-cleavage was 0.05.
Next, A67G A140U: 0.56; A67C U104C: 0.04; A65U C146U: 0.16.
Regarding A64G A77U, the self-cleavage was determined as 0.23.
For A64G A77G, the self-cleavage was 0.42.
Take A64C A67U: the self-cleavage came to 0.11.
Take A65U A79G: the self-cleavage turned out to be 0.21.
As for A65U A142G, the self-cleavage was 0.19.
As to A67G C68A, the self-cleavage was determined as 0.05.
A64U U112A: the self-cleavage came to 0.47.
Consider A65G A121C, for which the self-cleavage came out at 0.07.
For A65G A121U, the self-cleavage was determined as 0.04.
As to A65U G127A, the self-cleavage was 0.68.
Regarding A65U U115C, the self-cleavage amounted to 0.26.
With A65G U100A, the self-cleavage came to 0.09.
In the case of A65G U100C, the self-cleavage was 0.06.
As for A65U A117G, the self-cleavage stood at 0.24.
The figure for A64G G75A is 0.17; for A65G U85A it is 0.07.
As for A65G U85C, the self-cleavage is 0.13.
The figure for A65G C71U is 0.03; for A64U G122C it is 0.44.
Regarding A64U G122A, the self-cleavage was 0.54.
In the case of A67C A78U, the self-cleavage was 0.07.
Regarding A67G A79C, the self-cleavage worked out at 0.48.
For A67G A79U, the self-cleavage was found to be 0.73.
As to A64U A117G, the self-cleavage stood at 0.53.
Turning to A67G G88A, the self-cleavage was found to be 0.05.
As to A67G C99U, the self-cleavage turned out to be 0.27.
As to C66U U130C, the self-cleavage amounted to 0.05.
For A65U G97A, the self-cleavage stood at 0.04.
The figure for A65G C68A is 0.04; for A64G G89U it is 0; for A65U A69G it is 0.09.
As to A65U A69C, the self-cleavage was 0.02.
Next, C66U U96A: 0.02; A64U G106U: 0.34; A65G C111U: 0.06.
The figure for C66U A124G is 0.03; for A64U U115A it is 0.57; for A65G G127U it is 0.04.
Take A65G G127C: the self-cleavage was 0.06.
For the variant C63U U115C, the self-cleavage was 0.32.
Take A65G A117G: the self-cleavage worked out at 0.08.
With A65G A78U, the self-cleavage came out at 0.03.
Take A67C U73C: the self-cleavage was found to be 0.22.
In the case of A64U U108C, the self-cleavage worked out at 0.65.
Next, A67G A136G: 0.67.
Next, A67G A136C: 0.38; A67G A136U: 0.4.
As for A65U G80A, the self-cleavage came out at 0.28.
Regarding C63U U96C, the self-cleavage stood at 0.
Regarding A64U U119A, the self-cleavage turned out to be 0.34.
For the variant A67C C71A, the self-cleavage was found to be 0.02.
As to A64U U130A, the self-cleavage worked out at 0.62.
Next, A65G A79G: 0.09; A65G A92G: 0.09.
As for A65G A92C, the self-cleavage is 0.
The figure for A65G A92U is 0.1.
In the case of A67C U96C, the self-cleavage is 0.12.
With A64G U112G, the self-cleavage stood at 0.
For A64G U112C, the self-cleavage was found to be 0.28.
As to A64U G126A, the self-cleavage is 0.37.
The figure for A64G A107C is 0.12.
Regarding C63U U102C, the self-cleavage worked out at 0.28.
Take C63U U102A: the self-cleavage was found to be 0.33.
With A64G U104A, the self-cleavage came to 0.32.
On to A64G A79U, for which the self-cleavage came to 0.34.
A64C A142U: the self-cleavage worked out at 0.37.
Turning to A64C A142G, the self-cleavage was 0.25.
Take C66U G75A: the self-cleavage came out at 0.04.
As to A65U A67G, the self-cleavage worked out at 0.15.
With A65G C76U, the self-cleavage worked out at 0.02.
The figure for A64U G127C is 0.6; for A65G U73G it is 0.08; for A65U A92G it is 0.03.
Consider A64C, for which the self-cleavage came to 0.35.
Regarding A64U, the self-cleavage turned out to be 0.41.
On to A64G, for which the self-cleavage came out at 0.25.
Turning to A64U C71U, the self-cleavage was determined as 0.37.
Regarding A67C C123A, the self-cleavage is 0.07.
Turning to A65U A140U, the self-cleavage stood at 0.1.
Regarding A65U A140G, the self-cleavage was determined as 0.26.
Consider A65U U73A, for which the self-cleavage was found to be 0.18.
Turning to A64G U132A, the self-cleavage came out at 0.34.
As to A64G U132C, the self-cleavage is 0.39.
As for A65C G105U, the self-cleavage worked out at 0.03.
Consider A67G C111U, for which the self-cleavage came to 0.54.
For A67G C111A, the self-cleavage was found to be 0.58.
Next, A67G G114A: 0.38; A67G G114C: 0.49.
Turning to A64U A94U, the self-cleavage was 0.26.
Turning to A65G C110U, the self-cleavage came to 0.07.
Turning to A64G U96A, the self-cleavage was 0.07.
For A65G A124U, the self-cleavage came out at 0.04.
A65G A124G: the self-cleavage was found to be 0.07.
With A64U G80U, the self-cleavage is 0.47.
The figure for A64U G82A is 0.65; for A64U A129G it is 0.66.
As for A64U A129U, the self-cleavage amounted to 0.46.
On to A64G A141G, for which the self-cleavage amounted to 0.21.
With A65G A107G, the self-cleavage was found to be 0.03.
As to A65G U96C, the self-cleavage came out at 0.08.
Consider A67G A69G, for which the self-cleavage is 0.31.
For A67G G80A, the self-cleavage was 0.79.
Next, A64U G125A: 0.34; A64U G125U: 0.41.
As for A64G U119C, the self-cleavage came out at 0.32.
As for A64U A124G, the self-cleavage turned out to be 0.3.
The figure for A64U A124U is 0.38; for A64C A124U it is 0.27.
For the variant A64C U130C, the self-cleavage worked out at 0.
Consider A67G A78G, for which the self-cleavage amounted to 0.27.
The figure for C66U U85C is 0.02.
Consider A65G U115A, for which the self-cleavage was 0.04.
Take A65G U115C: the self-cleavage was 0.05.
Take A65U G114A: the self-cleavage was 0.19.
Consider A64U C116A, for which the self-cleavage stood at 0.37.
Regarding A65G A69U, the self-cleavage was 0.07.
As to A65G A69G, the self-cleavage was 0.
With A65G A69C, the self-cleavage amounted to 0.
Consider A65U A121U, for which the self-cleavage stood at 0.24.
The figure for A67G C131U is 0.56; for A65G C95A it is 0.04.
With A64U U134C, the self-cleavage was 0.51.
The figure for A64U U134A is 0.16; for A64G G105U it is 0.15.
As for A65G C133U, the self-cleavage worked out at 0.04.
As for A65G C90U, the self-cleavage stood at 0.03.
For the variant A67C G135U, the self-cleavage worked out at 0.05.
C63U U109A: the self-cleavage is 0.12.
Next, A65G G74A: 0.01; A64G G72A: 0.19; A64G G72U: 0.12.
As to A64G U81A, the self-cleavage was found to be 0.34.
For the variant A64G U102C, the self-cleavage was determined as 0.34.
Consider A65U A78C, for which the self-cleavage came to 0.27.
For the variant A65C U87C, the self-cleavage came to 0.04.
Take A65U G88U: the self-cleavage came to 0.02.
On to C66A A136G, for which the self-cleavage amounted to 0.04.
Next, A67C U108C: 0.
Regarding A65G G97A, the self-cleavage worked out at 0.03.
On to A64G G93A, for which the self-cleavage amounted to 0.04.
As for A64G G88C, the self-cleavage came out at 0.04.
Next, A64G A129U: 0.25; A64G A129G: 0.29.
Regarding A67C A141G, the self-cleavage is 0.12.
As for A65C U119A, the self-cleavage was determined as 0.
Take A64C G75U: the self-cleavage was 0.08.
